From patent publication US20160130552A1

Target: RGD-recognizing receptors of monocytes
Assay: cell-based or functional assay

RGDS [Small RGD peptides containing the amino-acid sequence Arg-Gly-Asp-Ser]
decrease in long-duration monocyte-platelet interactions under flow: 44%
